Columns and labels:
4T1 cells = assay: In vivo stimulation of neutrophils with chemokines, purified neutrophils co-cultured with 4T1 cells; format: cell-based, mouse; details: healthy mice treated in vivo with G-CSF alone or G-CSF plus chemokine
Method: A. To test which chemokines may participate in the stimulation of neutrophils, neutrophils purified from healthy mice were co-culture with luciferase labeled 4T1 cells in the presence (20 ng/ml of chemokine) or absence of certain chemokines for an overnight incubation. […] B. To test which chemokines are sufficient for in vivo stimulation of neutrophils healthy mice were treated with G-CSF (to boost neutrophil numbers) and either CCL2, CCL5 or CXCL1. Control mice were treated with G-CSF alone. Neutrophils were purified from these mice and co-cultured with Luciferase-labeled 4T1 cells. […] Conclusion—CCL2 and to a lesser degree CCL5 can stimulate tumor cell killing both in vitro and in vivo.

MDA-MB-231 cells = assay: In vitro killing assay: human neutrophils co-cultured with luciferase labelled MDA-MB-231 cells; format: cell-based; details: naïve human neutrophils:tumor cells 1:1, chemokine 100 ng/ml (rhG-CSF 20 ng/ml), overnight
Source text: Luciferase is under a constitutive promoter so cell death results in a decrease in luciferase activity because there is no transcription/translation of the lucierferase gene. The assay itself requires lysing of the cell to release the luciferase to mix with the luciferin and measure the luminescence. But it isn't that they dying cell releases luciferase. More signal means more luciferase which means more live cells. […]. […] Nave human neutrophils were co-cultured with MDA-MB-231 cells. […] Cells were seeded at a ratio of human neutrophils:human tumor cells=1:1.
Antibodies used for immunohistochemistry—MMP9, F4/80 and CCR2 (all from AbCam), Myeloperoxidase (Dako), Ly-6G and Cd11b (both from BD), and Cleaved Caspase 3 (Cell signalling). Antibodies used for western blotting—Actin (Sigma), CCL2 (AbCam) and CCL5 (R&D) p-SMAD2 (cell signalling). Antibodies used for FACS analysis FITC-Ly-6G, FITC-Cd11b, FITC-F4/80, FITC-Cd34 and FITC-c-Kit (all from BD) and VEGFR1-AP (R&D). Neutrophil Depletion Neutrophil depletion was achieved using daily IP injections of 12.5 μg Rat anti-Gr-1 antibody (BD) or Rat anti-Ly-6G antibody (BD) starting on day 3 post tumour engraftment. Starting on day 14, neutrophil depleting antibodies were administered twice daily. Control mice were injected with […] Rat isotype control (BD). Neutrophil depletion was monitored by manual blood differentials and FACS analysis. Flow Cytometry Peripheral blood was collected into EDTA-coated tubes, washed and resuspended in FACS buffer solution (PBS, 2% heat-inactivated FCS, 5 mM EDTA, and 0.02% sodium azide). The samples were blocked with […] and then incubated with fluorophore-conjugated antibodies. Erythrocytes were then lysed with FACS lysing solution (BD Biosciences) and the cell suspensions were analyzed on a FACSCalibur (BD Biosciences). Colony Formation Assay Female nude mice were orthotopically injected with 5×10^6 puromicin resistant 4T1 cells. On days 7 and 14 post tumour engraftment the mice were sacrificed and perfused with PBS. The lungs and livers were removed, washed with PBS and dissociated with Collagenase A (Roche). The single cell suspension was then plated onto puromicin containing media and selected for 14 day. Colonies were stained with Methylene-Blue and counted manually. Mouse Neutrophil Purification Whole blood was collected by cardiac puncture using heparinized (Sigma) syringe. The blood was diluted with 5 volumes of PBS containing 0.5% BSA and subjected to a discontinuous Histopaque (Sigma) gradient (1.077 and 1.119). Neutrophils were collected from the 1.077-1.119 interface, lymphocytes and monocytes collected from the plasma-1.077 interface. RBCs were eliminated by hypotonic lysis. The cells were washed twice with PBS-BSA and re-suspended in OptiMEM (Invitrogen) 0.5% FBS in a final concentration of 2×10^6 cells/ml. Neutrophil purity and viability were determined visually and were consistently >98%. Human Neutrophil Purification As part of a Memorial Sloan-Kettering Cancer Center institutionally approved protocol, blood samples (˜10 cc) were collected from healthy volunteers or from patients who were already having blood drawn for pre-surgical testing. Patients were consented accordingly as part of the approved protocol. […] Patients had either mastectomies or lumpectomies planned and had blood drawn prior to definitive surgical removal of their primary tumor or chemotherapy. Blood samples were transferred to the lab for analysis no more than 1 hour post-blood draw. Heparinzed blood (20 U/ml final) was mixed with an equal volume of Dextran 500 (3% in saline) and incubated 30 minutes at room temperature. The leukocyte-rich supernatant was layered on top of histopaque 1077 (Sigma) and centrifuged. Neutrophils, collected in the pellet fraction, were resuspended in 10 ml 0.2% NaCl for 30 seconds to remove contaminating erythrocytes. Isotonicity was restored by the addition of 10 ml 1.6% NaCl. […]

B1: rhG-CSF: recombinant methionyl human granulocyte colony-stimulating factor (Neupogen, Amgen) (protein, chains of the INN, looked up)
chain: MTPLGPASSLPQSFLLKCLEQVRKIQGDGAALQEKLCATYKLCHPEELVLLGHSLGIPWAPLSSCPSQALQLAGCLSQLHSGLFLYQGLLQALEGISPELGPTLDTLQLDVADFATTIWQQMEELGMAPALQPTQGAMPAFASAFQRRAGGVLVASHLQSFLEVSYRVLRHLAQP
modifications: N-terminal methionine
4T1 cells
  viability of 4T1 cells co-cultured with neutrophils purified from chemokine treated mice: did not induce a reduction in cell viability
MDA-MB-231 cells
  neutrophil cytotoxicity / neutrophil mediated killing of MDA-MB-231 cells: does not induce neutrophil mediated cell killing
